Assay results reported in patent US20110263454A1, “Methods of Identifying Functional Characteristics of Promoters, Transcription Modifying Proteins and Transcription Modulating Agents” (Salk Institute for Biological Studies, priority 2008, published 2011).

Assays:
[1] = test system: hMyoD promoter; assay: NHR-promoter luciferase screen, hMyoD promoter; assay type: cell-based, human; details: for Luc. act., normalized to lacZ / Normalized Luc. act., normalized to control: MyoD promoter reporter, co-transfected HR, without or with its ligand; for Normalized Luc. act., normalized to control: relative to control; for luciferase activity normalized to lacZ activity and to a control, hMyoD: hMyoD promoter-luciferase, CV-1 cells, NHR +/- ligand, control = 1.00
Method: (§1) The use, feasibility, and reproducibility of the functional NHR-promoter screen in a 48-well format have been tested validated. Briefly, there were co-expressed 50 ng of each NHR/NHR homodimer or NHR/RXR heterodimer with 100 ng promoter/luciferase construct and 50 ng of LacZ (as a control for transfection efficiency) in CV-1 cells using Fugene HD (Roche) as a transfection reagent (alternatively or additionally, a CMV-YFP construct can be used as a transfection control). Each of the nuclear hormone receptors that were used in these experiments was cloned into a pcDNA3.1 vector and comprised a C-terminally linked V5H6 tag. Twenty-four hours after transfection, appropriate ligands were added, where applicable, (see Table 5 for various ligands and concentrations and after 48 hrs, samples were assayed for luciferase and LacZ activity. To measure for luciferase activity 15 ul of sample was added to 30 ul of luciferase buffer (20 mM tricine, 1.07 mM MgCarbonate, 2.67 mM MgSulfate, 0.1 mM Naz-EDTA, 5 mM DTT, 5 mM ATP, 0.15 mg/ml CoA, 0.5 mM Luciferin), mixed briefly, and run in a Perkin Elmer Victor 5 luminometer. Thus, the functional NHR-promoter screen was used to observe the transcriptional activity of 29 promoters from various physiological pathways including inflammation, lipid and sugar metabolism, cholesterol transport, xenobiotic metabolism, and circadian rhythm.
(§2) The promoters that facilitate transcription of the indicated gene products that were tested using the protocols described herein are listed in the first row of the table. The nuclear hormone receptors and, where applicable, ligands that were assayed for their transcriptional effects on the promoters are listed in the first column of the table. The data represent the luciferase activity of each sample normalized to both the lacZ activity of that sample and to a control, e.g., no NHR or ligand, as customary in the art. As described previously, these normalizations allow the transcriptional activity of each reporter cell to be compared to other samples.
(§3) Tables 7-40 show the transcriptional effects of the hormone receptors, and, where applicable, ligands (orphan receptors are screened without ligand), on each individual promoter. […] The control data of each table are shown in their last rows.

[2] = test system: mAgrp promoter; assay: NHR-promoter luciferase screen, mAgrp promoter; assay type: cell-based, mouse; details: for Results of assays of transcription factor (+/- ligand) with mAgrp: Table 6d, luciferase activity relative to control (control = 1.00); for Luc. act., normalized to lacZ / Normalized Luc. act., normalized to control: mAgrp promoter, HR component with or without ligand; for Normalized Luc. act., normalized to control: relative to control
Method: as §1, §2, §3

[3] = test system: mPOMC promoter; assay: NHR-promoter luciferase screen, mPOMC promoter; assay type: cell-based, mouse; details: for Results of assays of transcription factor (+/- ligand) with mPOMC: Table 6d, luciferase activity relative to control (control = 1.00); for Luc. act., normalized to lacZ / Normalized Luc. act., normalized to control: mPOMC promoter, HR component with or without ligand; for Normalized Luc. act., normalized to control: relative to control
Method: as §1, §2, §3

[4] = test system: hIRF7 promoter; assay: NHR-promoter luciferase screen, hIRF7 promoter; assay type: cell-based, human; details: for Normalized Luc. act., normalized to control / Luc. act., normalized to lacZ: IRF7 promoter reporter; for Normalized Luc. act., normalized to control: HR without or with its ligand, relative to control; for Luc. act., normalized to lacZ: hormone receptor (HR) without or with its ligand; for hIRF7 promoter reporter activity: transcription factor +/- ligand, control = 1.00
Method: as §1, §2, §3

[5] = test system: mAdiponectin promoter; assay: NHR-promoter luciferase screen, mAdiponectin promoter; assay type: cell-based, mouse; details: for Luc. act., normalized to lacZ / Normalized Luc. act., normalized to control: Adiponectin, HR component without or with its ligand; for mAdiponectin promoter reporter activity: transcription factor +/- ligand, control = 1.00
Method: as §1, §2, §3

| Molecule | Luc. act., normalized to lacZ [1] | Normalized Luc. act., normalized to control [1] | luciferase activity normalized to lacZ activity and to a control, hMyoD [1] | Results of assays of transcription factor (+/- ligand) with mAgrp [2] | Luc. act., normalized to lacZ [2] | Normalized Luc. act., normalized to control [2] | Results of assays of transcription factor (+/- ligand) with mPOMC [3] | Luc. act., normalized to lacZ [3] | Normalized Luc. act., normalized to control [3] | Normalized Luc. act., normalized to control [4] | Luc. act., normalized to lacZ [4] | hIRF7 promoter reporter activity [4] | Luc. act., normalized to lacZ [5] | Normalized Luc. act., normalized to control [5] | mAdiponectin promoter reporter activity [5] |
| --- | --- | --- | --- | --- | --- | --- | --- | --- | --- | --- | --- | --- | --- | --- | --- |
| RARg: Retinoic acid receptor γ (NR1B3), nuclear hormone receptor cDNA driver (protein, UniProt P13631 1-454, looked up) Retinoic acid receptor gamma: MATNKERLFAAGALGPGSGYPGAGFPFAFPGALRGSPPFEMLSPSFRGLGQPDLPKEMASLSVETQSTSSEEMVPSSPSPPPPPRVYKPCFVCNDKSSGYHYGVSSCEGCKGFFRRSIQKNMVYTCHRDKNCIINKVTRNRCQYCRLQKCFEVGMSKEAVRNDRNKKKKEVKEEGSPDSYELSPQLEELITKVSKAHQETFPSLCQLGKYTTNSSADHRVQLDLGLWDKFSELATKCIIKIVEFAKRLPGFTGLSIADQITLLKAACLDILMLRICTRYTPEQDTMTFSDGLTLNRTQMHNAGFGPLTDLVFAFAGQLLPLEMDDTETGLLSAICLICGDRMDLEEPEKVDKLQEPLLEALRLYARRRRPSQPYMFPRMLMKITDLRGISTKGAERAITLKMEIPGPMPPLIREMLENPEMFEDDSSQPGPHPNASSEDEVPGGQGKGGLKSPA | 104.5 | 1.6 | 1.65 | 2.06 | 81.9 | 2.1 | 1.53 | 105.9 | 1.5 | 1.8 | 47.5 | 1.80 | 62.6 | 1.0 | 1.00 |
| RVRb: Rev-Erb β (NR1D2, alternative name RVR), cDNA driver (protein, UniProt Q14995 1-579, looked up) Nuclear receptor subfamily 1 …: MEVNAGGVIAYISSSSSASSPASCHSEGSENSFQSSSSSVPSSPNSSNSDTNGNPKNGDLANIEGILKNDRIDCSMKTSKSSAPGMTKSHSGVTKFSGMVLLCKVCGDVASGFHYGVHACEGCKGFFRRSIQQNIQYKKCLKNENCSIMRMNRNRCQQCRFKKCLSVGMSRDAVRFGRIPKREKQRMLIEMQSAMKTMMNSQFSGHLQNDTLVEHHEQTALPAQEQLRPKPQLEQENIKSSSPPSSDFAKEEVIGMVTRAHKDTFMYNQEQQENSAESMQPQRGERIPKNMEQYNLNHDHCGNGLSSHFPCSESQQHLNGQFKGRNIMHYPNGHAICIANGHCMNFSNAYTQRVCDRVPIDGFSQNENKNSYLCNTGGRMHLVCPMSKSPYVDPHKSGHEIWEEFSMSFTPAVKEVVEFAKRIPGFRDLSQHDQVNLLKAGTFEVLMVRFASLFDAKERTVTFLSGKKYSVDDLHSMGAGDLLNSMFEFSEKLNALQLSDEEMSLFTAVVLVSADRSGIENVNSVEALQETLIRALRTLIMKNHPNEASIFTKLLLKLPDLRSLNNMHSEELLAFKVHP | 80.9 | 1.3 | 1.28 | 1.05 | 41.7 | 1.1 | 0.85 | 58.4 | 0.8 | 1.9 | 50.4 | 1.91 | 66.3 | 1.1 | 1.06 |
| PPARd: Peroxisome proliferator activated receptor δ (NR1C2), cDNA driver (protein, UniProt Q03181 1-441, looked up) Peroxisome …: MEQPQEEAPEVREEEEKEEVAEAEGAPELNGGPQHALPSSSYTDLSRSSSPPSLLDQLQMGCDGASCGSLNMECRVCGDKASGFHYGVHACEGCKGFFRRTIRMKLEYEKCERSCKIQKKNRNKCQYCRFQKCLALGMSHNAIRFGRMPEAEKRKLVAGLTANEGSQYNPQVADLKAFSKHIYNAYLKNFNMTKKKARSILTGKASHTAPFVIHDIETLWQAEKGLVWKQLVNGLPPYKEISVHVFYRCQCTTVETVRELTEFAKSIPSFSSLFLNDQVTLLKYGVHEAIFAMLASIVNKDGLLVANGSGFVTREFLRSLRKPFSDIIEPKFEFAVKFNALELDDSDLALFIAAIILCGDRPGLMNVPRVEAIQDTILRALEFHLQANHPDAQYLFPKLLQKMADLRQLVTEHAQMMQRIKKTETETSLHPLLQEIYKDMY | 59.6 | 0.9 | 0.94 | 1.32 | 52.4 | 1.3 | 1.02 | 70.0 | 1.0 | 1.3 | 33.6 | 1.27 | 89.4 | 1.4 | 1.42 |
| RARb: Retinoic acid receptor β (NR1B2), nuclear hormone receptor cDNA driver (protein, UniProt P10826 1-455, looked up) Retinoic acid receptor beta: MTTSGHACPVPAVNGHMTHYPATPYPLLFPPVIGGLSLPPLHGLHGHPPPSGCSTPSPATIETQSTSSEELVPSPPSPLPPPRVYKPCFVCQDKSSGYHYGVSACEGCKGFFRRSIQKNMIYTCHRDKNCVINKVTRNRCQYCRLQKCFEVGMSKESVRNDRNKKKKETSKQECTESYEMTAELDDLTEKIRKAHQETFPSLCQLGKYTTNSSADHRVRLDLGLWDKFSELATKCIIKIVEFAKRLPGFTGLTIADQITLLKAACLDILILRICTRYTPEQDTMTFSDGLTLNRTQMHNAGFGPLTDLVFTFANQLLPLEMDDTETGLLSAICLICGDRQDLEEPTKVDKLQEPLLEALKIYIRKRRPSKPHMFPKILMKITDLRSISAKGAERVITLKMEIPGSMPPLIQEMLENSEGHEPLTPSSSGNTAEHSPSISPSSVENSGVSQSPLVQ | 123.5 | 1.9 | 1.95 | 2.27 | 90.2 | 2.3 | 1.85 | 127.4 | 1.8 | 1.8 | 47.2 | 1.79 | 81.2 | 1.3 | 1.29 |
| RARa: Retinoic acid receptor α (NR1B1), nuclear hormone receptor cDNA driver (protein, UniProt P10276 1-462, looked up) Retinoic acid receptor alpha: MASNSSSCPTPGGGHLNGYPVPPYAFFFPPMLGGLSPPGALTTLQHQLPVSGYSTPSPATIETQSSSSEEIVPSPPSPPPLPRIYKPCFVCQDKSSGYHYGVSACEGCKGFFRRSIQKNMVYTCHRDKNCIINKVTRNRCQYCRLQKCFEVGMSKESVRNDRNKKKKEVPKPECSESYTLTPEVGELIEKVRKAHQETFPALCQLGKYTTNNSSEQRVSLDIDLWDKFSELSTKCIIKTVEFAKQLPGFTTLTIADQITLLKAACLDILILRICTRYTPEQDTMTFSDGLTLNRTQMHNAGFGPLTDLVFAFANQLLPLEMDDAETGLLSAICLICGDRQDLEQPDRVDMLQEPLLEALKVYVRKRRPSRPHMFPKMLMKITDLRSISAKGAERVITLKMEIPGSMPPLIQEMLENSEGLDTLSGQPGGGGRDGGGLAPPPGSCSPSLSPSSNRSSPATHSP | 99.3 | 1.6 | 1.57 | 2.05 | 81.1 | 2.0 | 1.43 | 98.5 | 1.4 | 1.5 | 40.6 | 1.54 | 78.6 | 1.3 | 1.25 |
